Consider one substance from patent US20150320832A1.

The experiment deals with Flightless I protein (human, endogenous in MET-1 and CC keratinocytes) (human) (UniProt Q13045). Description: cell-based or functional assay.
UniProt Q13045, sequence (Q13045 whole entry): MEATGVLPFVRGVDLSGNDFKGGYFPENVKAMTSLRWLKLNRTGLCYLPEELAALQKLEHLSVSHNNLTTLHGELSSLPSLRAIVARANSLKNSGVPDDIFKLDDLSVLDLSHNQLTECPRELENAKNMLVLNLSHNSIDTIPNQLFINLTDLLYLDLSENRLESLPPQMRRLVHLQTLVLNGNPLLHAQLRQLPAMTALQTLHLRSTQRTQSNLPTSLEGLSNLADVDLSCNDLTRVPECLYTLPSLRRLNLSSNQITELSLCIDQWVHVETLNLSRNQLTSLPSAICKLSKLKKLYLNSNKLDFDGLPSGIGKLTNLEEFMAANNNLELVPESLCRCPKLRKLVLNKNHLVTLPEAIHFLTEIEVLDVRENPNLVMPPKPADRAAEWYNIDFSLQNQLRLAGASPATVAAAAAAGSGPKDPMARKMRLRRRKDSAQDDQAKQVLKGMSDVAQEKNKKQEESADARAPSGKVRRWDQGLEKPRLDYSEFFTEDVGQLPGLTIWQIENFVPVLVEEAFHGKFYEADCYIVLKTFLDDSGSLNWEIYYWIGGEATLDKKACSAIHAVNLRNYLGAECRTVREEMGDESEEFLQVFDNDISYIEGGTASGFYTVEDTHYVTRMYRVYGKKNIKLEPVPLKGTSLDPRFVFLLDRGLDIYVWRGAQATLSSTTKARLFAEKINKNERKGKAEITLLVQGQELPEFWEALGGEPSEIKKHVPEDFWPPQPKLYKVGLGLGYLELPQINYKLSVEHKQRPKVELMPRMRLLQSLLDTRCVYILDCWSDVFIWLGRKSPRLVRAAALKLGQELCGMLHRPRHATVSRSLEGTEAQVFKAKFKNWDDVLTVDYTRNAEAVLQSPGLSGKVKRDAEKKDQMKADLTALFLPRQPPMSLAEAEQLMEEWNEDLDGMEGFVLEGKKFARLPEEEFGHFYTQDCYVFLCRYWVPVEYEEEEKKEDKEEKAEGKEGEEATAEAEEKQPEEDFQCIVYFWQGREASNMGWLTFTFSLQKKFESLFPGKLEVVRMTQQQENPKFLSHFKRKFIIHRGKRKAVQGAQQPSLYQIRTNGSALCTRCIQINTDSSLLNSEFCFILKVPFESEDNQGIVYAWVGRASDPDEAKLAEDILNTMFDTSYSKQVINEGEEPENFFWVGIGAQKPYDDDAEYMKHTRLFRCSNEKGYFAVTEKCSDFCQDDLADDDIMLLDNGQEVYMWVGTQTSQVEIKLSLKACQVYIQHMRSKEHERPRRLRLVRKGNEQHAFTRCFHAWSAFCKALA

Consider “rFLAP-1 protein (LRRFIP1 (657-784) Protein-H00009208-Q01, Abnova Technologies) (from UniProt Q32MZ4 657-784)”, for which the decrease in cell invasion properties of RDEB-SCC (CC) cells, 3D organotypic model stood at 30% and the decrease in cell invasion properties of sporadic SCC (MET-1) cells, 3D organotypic model turned out to be 60%.
